Results published in article PMC3840788, “The role of Cdc42 and Gic1 in the regulation of septin filament formation and dissociation” (eLife, 2013).

T1: septin-Cdc11Δ complex (Cdc3, Cdc10, Cdc12) (yeast (S. cerevisiae), UniProt P32457 1-520; P25342 1-322; P32468 1-407)
T1 construct: Cdc3, yeast septin; Cdc10, yeast septin; Cdc12, yeast septin; Septin complex devoid of the Cdc11 subunit; copies: + +
T1 sequence (looked up) 1: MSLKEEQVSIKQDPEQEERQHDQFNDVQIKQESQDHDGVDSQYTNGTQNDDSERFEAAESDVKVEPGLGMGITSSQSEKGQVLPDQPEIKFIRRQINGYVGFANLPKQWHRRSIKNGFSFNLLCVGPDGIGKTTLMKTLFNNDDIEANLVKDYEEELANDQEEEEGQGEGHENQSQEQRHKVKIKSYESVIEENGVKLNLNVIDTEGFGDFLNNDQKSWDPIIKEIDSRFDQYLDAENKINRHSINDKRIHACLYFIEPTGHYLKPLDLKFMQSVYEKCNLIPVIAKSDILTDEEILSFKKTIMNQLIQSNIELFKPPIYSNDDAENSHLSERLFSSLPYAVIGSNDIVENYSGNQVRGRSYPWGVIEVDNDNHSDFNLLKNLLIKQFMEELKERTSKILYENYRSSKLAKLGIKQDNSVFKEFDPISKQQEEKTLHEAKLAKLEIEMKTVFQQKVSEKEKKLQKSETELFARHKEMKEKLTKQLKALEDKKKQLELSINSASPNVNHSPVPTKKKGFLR
T1 sequence (looked up) 2: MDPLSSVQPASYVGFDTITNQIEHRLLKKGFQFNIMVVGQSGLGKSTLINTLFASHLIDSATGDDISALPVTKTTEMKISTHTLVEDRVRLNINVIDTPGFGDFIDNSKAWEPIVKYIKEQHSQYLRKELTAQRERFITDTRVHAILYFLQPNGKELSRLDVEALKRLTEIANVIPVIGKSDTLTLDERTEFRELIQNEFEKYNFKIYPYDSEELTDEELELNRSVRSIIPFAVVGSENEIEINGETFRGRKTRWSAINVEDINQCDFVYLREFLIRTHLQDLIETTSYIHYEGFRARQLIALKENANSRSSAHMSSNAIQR
T1 sequence (looked up) 3: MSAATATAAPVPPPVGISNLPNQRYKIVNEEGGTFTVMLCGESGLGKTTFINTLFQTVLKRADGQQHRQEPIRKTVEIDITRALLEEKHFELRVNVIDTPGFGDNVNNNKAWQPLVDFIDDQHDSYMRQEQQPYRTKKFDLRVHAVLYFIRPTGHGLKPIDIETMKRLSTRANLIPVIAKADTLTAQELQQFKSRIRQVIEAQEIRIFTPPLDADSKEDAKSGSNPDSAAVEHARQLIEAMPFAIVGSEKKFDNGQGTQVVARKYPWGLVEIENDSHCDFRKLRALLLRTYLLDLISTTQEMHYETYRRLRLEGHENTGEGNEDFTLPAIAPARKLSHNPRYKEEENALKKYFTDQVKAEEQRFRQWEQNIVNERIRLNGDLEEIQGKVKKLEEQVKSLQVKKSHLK

T2: Cdc10(30-322) (subunit of the septin-Cdc10(30-322) complex) (yeast (S. cerevisiae), UniProt P25342 30-322)
T2 construct: Never tested alone: it stood inside the complex m5
T2 sequence (looked up): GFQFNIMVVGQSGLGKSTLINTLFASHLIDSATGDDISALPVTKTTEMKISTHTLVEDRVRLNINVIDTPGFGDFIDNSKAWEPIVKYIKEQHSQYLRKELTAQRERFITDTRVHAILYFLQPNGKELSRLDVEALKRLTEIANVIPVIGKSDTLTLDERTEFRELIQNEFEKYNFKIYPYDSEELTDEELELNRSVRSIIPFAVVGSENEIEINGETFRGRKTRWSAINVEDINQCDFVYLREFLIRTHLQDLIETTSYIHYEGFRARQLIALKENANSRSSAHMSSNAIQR

T3: Cdc10 (subunit of the purified yeast septin complex) (yeast (S. cerevisiae), UniProt P25342 1-322)
T3 construct: Cdc10, yeast septin; Never tested alone: it stood inside the complex m2; the subunit that is touched was assigned from antibody labelling, complexes lacking subunits and the known order of the subunits; source: subunit of the septin complex expressed and purified as described earlier (Farkasovsky et al., 2005)
T3 sequence (looked up): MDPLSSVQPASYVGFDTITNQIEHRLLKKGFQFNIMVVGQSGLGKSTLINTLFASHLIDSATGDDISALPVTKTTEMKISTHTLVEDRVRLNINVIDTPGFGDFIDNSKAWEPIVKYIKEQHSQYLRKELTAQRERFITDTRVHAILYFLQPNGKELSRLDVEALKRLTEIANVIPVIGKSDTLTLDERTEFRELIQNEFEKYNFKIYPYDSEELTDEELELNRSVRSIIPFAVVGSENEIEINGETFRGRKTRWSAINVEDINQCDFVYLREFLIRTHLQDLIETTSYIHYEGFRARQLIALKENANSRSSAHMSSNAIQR

B1: yeast septin complex (Cdc3, Cdc10, Cdc11, Cdc12) (complex, yeast (S. cerevisiae))
chain 1: MSLKEEQVSIKQDPEQEERQHDQFNDVQIKQESQDHDGVDSQYTNGTQNDDSERFEAAESDVKVEPGLGMGITSSQSEKGQVLPDQPEIKFIRRQINGYVGFANLPKQWHRRSIKNGFSFNLLCVGPDGIGKTTLMKTLFNNDDIEANLVKDYEEELANDQEEEEGQGEGHENQSQEQRHKVKIKSYESVIEENGVKLNLNVIDTEGFGDFLNNDQKSWDPIIKEIDSRFDQYLDAENKINRHSINDKRIHACLYFIEPTGHYLKPLDLKFMQSVYEKCNLIPVIAKSDILTDEEILSFKKTIMNQLIQSNIELFKPPIYSNDDAENSHLSERLFSSLPYAVIGSNDIVENYSGNQVRGRSYPWGVIEVDNDNHSDFNLLKNLLIKQFMEELKERTSKILYENYRSSKLAKLGIKQDNSVFKEFDPISKQQEEKTLHEAKLAKLEIEMKTVFQQKVSEKEKKLQKSETELFARHKEMKEKLTKQLKALEDKKKQLELSINSASPNVNHSPVPTKKKGFLR
chain 2: MDPLSSVQPASYVGFDTITNQIEHRLLKKGFQFNIMVVGQSGLGKSTLINTLFASHLIDSATGDDISALPVTKTTEMKISTHTLVEDRVRLNINVIDTPGFGDFIDNSKAWEPIVKYIKEQHSQYLRKELTAQRERFITDTRVHAILYFLQPNGKELSRLDVEALKRLTEIANVIPVIGKSDTLTLDERTEFRELIQNEFEKYNFKIYPYDSEELTDEELELNRSVRSIIPFAVVGSENEIEINGETFRGRKTRWSAINVEDINQCDFVYLREFLIRTHLQDLIETTSYIHYEGFRARQLIALKENANSRSSAHMSSNAIQR
chain 3: MSGIIDASSALRKRKHLKRGITFTVMIVGQSGSGRSTFINTLCGQQVVDTSTTILLPTDTSTEIDLQLREETVELEDDEGVKIQLNIIDTPGFGDSLDNSPSFEIISDYIRHQYDEILLEESRVRRNPRFKDGRVHCCLYLINPTGHGLKEIDVEFIRQLGSLVNIIPVISKSDSLTRDELKLNKKLIMEDIDRWNLPIYNFPFDEDEISDEDYETNMYLRTLLPFAIIGSNEVYEMGGDVGTIRGRKYPWGILDVEDSSISDFVILRNALLISHLHDLKNYTHEILYERYRTEALSGESVAAESIRPNLTKLNGSSSSSTTTRRNTNPFKQSNNINNDVLNPASDMHGQSTGENNETYMTREEQIRLEEERLKAFEERVQQELLLKRQELLQREKELREIEARLEKEAKIKQEE
chain 4: MSAATATAAPVPPPVGISNLPNQRYKIVNEEGGTFTVMLCGESGLGKTTFINTLFQTVLKRADGQQHRQEPIRKTVEIDITRALLEEKHFELRVNVIDTPGFGDNVNNNKAWQPLVDFIDDQHDSYMRQEQQPYRTKKFDLRVHAVLYFIRPTGHGLKPIDIETMKRLSTRANLIPVIAKADTLTAQELQQFKSRIRQVIEAQEIRIFTPPLDADSKEDAKSGSNPDSAAVEHARQLIEAMPFAIVGSEKKFDNGQGTQVVARKYPWGLVEIENDSHCDFRKLRALLLRTYLLDLISTTQEMHYETYRRLRLEGHENTGEGNEDFTLPAIAPARKLSHNPRYKEEENALKKYFTDQVKAEEQRFRQWEQNIVNERIRLNGDLEEIQGKVKKLEEQVKSLQVKKSHLK
notes: Cdc3, yeast septin; Cdc10, yeast septin; Cdc11, yeast septin; Cdc12, yeast septin; Octamer at high salt (500 mM NaCl), filaments at low salt (100 mM NaCl); also called septin octamers; septin filaments; source: expressed and purified as described earlier (Farkasovsky et al., 2005); copies: 2 + 2 + 2 + 2

What was measured:
[1] = biological target: the molecule itself; assay: SEC; gel filtration of purified Gic1(104-314) alone against protein standards; calculated 23.38 kDa, elutes at 49 kDa; monomer to dimer
[2] = biological target: T1, septin-Cdc11Δ complex (Cdc3, Cdc10, …); assay: negative-stain electron microscopy with single particle analysis; 0.3 µM septin hetero-oligomers, alone or with 1.5 µM Gic1, dialysed overnight at 4°C from high-salt buffer against low-salt buffer (100 mM NaCl, 20 mM Tris-HCl pH 7.5, 1 mM DTT); antibody labelling against Cdc11; adsorbed to a lipid monolayer; settings: both partners purified
[3] = biological target: T4, septin-Cdc10(30-322) complex (Cdc3, Cdc10(30-322), Cdc11, Cdc12) (yeast (S. cerevisiae), UniProt P32457 1-520; P25342 30-322; P32458 1-415; P32468 1-407); assay: as above; settings: both partners purified
T4 construct: Cdc3, yeast septin; Cdc11, yeast septin; Cdc12, yeast septin; Seen by EM as tetramers or inside-out octamers; no filaments at low salt; also called polymerization-impaired septin complexes; non-polymerizing septin; copies: + + +

[4] = biological target: T2, Cdc10(30-322) (subunit of the …); assay: as above; settings: both partners purified
[5] = biological target: T3, Cdc10 (subunit of the purified yeast …); assay: as above; settings: both partners purified
[6] = biological target: B1; assay: as above; settings: both partners purified
[7] = biological target: the molecule itself; assay: negative-stain electron microscopy with single particle analysis; 0.1 µM septin octamers, with or without 0.5 µM Gic1; Cdc42-GppNHp or Cdc42-GDP at the concentration of Gic1 or 10 times higher (0.25, 1.5, 5 µM), 2 to 60 min; antibody labelling against Cdc3

binding result [2]	binding result [3]	binding result [4]	binding result [5]	binding result [6]	Binder	stoichiometry N [1]	binding result [7]
binds	binds	binds	binds	binds	Gic1(104-314) (domain or fragment, yeast (S. cerevisiae), UniProt P38785 104-314, looked up, Gic1, yeast, residues 104-314 (N-terminal 103 amino acids deleted); gic1(310-942) in nucleotides; contains the CRIB domain and the C-terminus; Called simply Gic1 throughout the text; The methods say GST was cleaved with thrombin; Dimer by gel filtration; source: E. coli BL21 (DE3) Rosetta, purified (Ni-NTA, glutathione sepharose, Superdex S200)) MFKKKDLLSRRHGSAKTAKQSSISTPFDFHHISHANGKREDNPLESHEEKHDVESLVKFTSLAPQPRPDSNVSSKYSNVVMNDSSRIVSSSTIATTMDSHHDGNETNNTPNGNKQLDSPTDLEMTLEDLRNYTFPSVLGDSVSEKTNPSSPSVSSFSGKFKPRELSALHTPELGNCFNVDQSLNSPGNRISVDDVLKFYYQCSETSTPRNT	~2	
					B1		binds
